Results as given in publication PMC5289644.

How the values were obtained:
[1] = biological target: HA-tagged intracellular part of Smβ-Int1 (Smβ-Int1 C-term) (S. mansoni)
[2] = biological target: HA-tagged intracellular part of Smβ-Int1 (Smβ-Int1 C-term) (S. mansoni); remark: listed apart in the source

V5-tagged SmVKR1 (wildtype venus kinase receptor 1 of S. mansoni)
GVBD (%) of Xenopus oocytes without L-Arg; Smβ-Int1, SmILK, SmPINCH, SmNck2 and SmVKR1 co-expressed (Exp 1) [1]: 90%
GVBD (%) without L-Arg; as Exp 1 with SmILKΔAnk1 in place of SmILK (Exp 2) [1]: 0%
GVBD (%) without L-Arg; as Exp 1 with SmNck2ΔSH3 in place of SmNck2 (Exp 5) [1]: 10%
GVBD (%) without L-Arg; as Exp 1 with SmPINCHΔLIM1 in place of SmPINCH (Exp 4) [1]: 0%
GVBD (%) without L-Arg; as Exp 1 with SmPINCHΔLIM4 in place of SmPINCH (Exp 3) [1]: 0%
GVBD (%) without L-Arg; as Exp 1 with the ILK inhibitor QLT-0267 (1 μM) (Exp 7) [1]: 0%
GVBD (%) of Xenopus oocytes without L-Arg; Smβ-Int1, SmILK and SmVKR1 co-expressed, no SmPINCH (Inj 10) [2]: 0%
GVBD (%) of Xenopus oocytes without L-Arg; Smβ-Int1, SmILK, SmPINCH and SmVKR1 co-expressed (Inj 11) [2]: 80%
GVBD (%) of Xenopus oocytes without L-Arg; Smβ-Int1, SmILK, SmPINCH, SmNck2 and SmVKR1 co-expressed, with the ILK inhibitor QLT-0267 (1 μM) (Inj 13) [2]: 0%
GVBD (%) of Xenopus oocytes without L-Arg; Smβ-Int1, SmILK, SmPINCH, SmNck2ΔSH3 and SmVKR1 co-expressed (Inj 15) [2]: 10%
GVBD (%) of Xenopus oocytes without L-Arg; Smβ-Int1, SmILK, SmPINCHΔLIM4 in place of SmPINCH and SmVKR1 co-expressed (Inj 14) [2]: 0%
GVBD (%) of Xenopus oocytes without L-Arg; Smβ-Int1, SmILKΔAnk1 in place of SmILK, SmPINCH and SmVKR1 co-expressed (Inj 12) [2]: 0%
GVBD (%) of Xenopus oocytes without L-Arg; Smβ-Int1, SmPINCH and SmVKR1 co-expressed, no SmILK (Inj 9) [2]: 0%
